Results from the DeepSol protein solubility set.

assay: soluble on expression in E. coli; label from the status in PepcDB or PDB records

| Sequence | soluble on expression in E. coli |
| --- | --- |
| MSLYTINIIPRVLHFKQPAGTSRGSYTTRNVWYIHLSSIECPGRVGVGECAPLPKLSCDDLPDYEQVLRSACQRLEQTGELDIESLRGYPSILFGLETALRHYETQSWALWDTPFSRGEVGIPINGLIWMGSFDRMLQQIEVKMQAGYRCIKLKIGAINFEEELALLRHIRAHYSAREIELRVDANGAFSPADAMDKLNRLAELDLHSIEQPIRAGQWEEMARLAAESPLPIALDEELIGCNALERKRELLAAIHPRYIILKPSLHGGISGGNEWIAEAEKQHIGWWITSALESNIGLNAIAQWCATFRNPLPQGLGTGLLFTDNVEMPLEIRKDCLWFCKEGHHHHHH | soluble |
| MSKSLKKLVEESREKNQPEVDMSDRGISNMLDVNGLFTLSHITQLVLSHNKLTMVPPNIAELKNLEVLNFFNNQIEELPTQISSLQKLKHLNLGMNRLNTLPRGFGSLPALEVLDLTYNNLSENSLPGNFFYLTTLRALYLSDNDFEILPPDIGKLTKLQILSLRDNDLISLPKEIGELTQLKELHIQGNRLTVLPPELGNLDLTGQKQVFKAENNPWVTPIADQFQLGVSHVFEYIRSETYKYLYGRHMQANPEPPKKNNDKSKKISRKPLAAKNR | not soluble |
| RSAFSKIESEEYNSLKSSTIQTIGTSDGGSGIGYIESGDYLVFNKINFGNGANSFKARVASGADTPTNIQLRLGSPTGTLIGTLTVASTGGWNNYEEKSCSITNTTGQHDLYLVFSGPVNIDYFIFDSNGVNP | soluble |
| MDSNDLEASFTSRLPPEIVAALKRKSSRDPNSRFPRKLHMLLTYLASNPQLEEEIGLSWISDTEFKMKKKNVALVMGIKLNTLNVNLRDLAFEQLQHDKGGWTQWKRSGFTRNSVFEDPTQNDSPMHHHHHH | soluble |
| MTLYRLHEADLEIPDAWQDQSINIFKLPASGPAREASFVISRDASQGDAPFADYVARQLENAEKQLPGFKLHKRWDINIHGHAAVLLDYQWQREGRDLMLRQVFIERRPAVLITTLTTTPADLPHHEPAWKQAMQTLVPRPTPS | soluble |
| MKQIESAKNQKVKDWKKLHTKKERTKTNTFLIEGEHLVEEALKSPGIVKEILVKDETRIPSDLETGIQCYMLSEDAFSAVTETETPQQIAAVCHMPEEKLATARKVLLIDAVQDPGNLGTMIRTADAAGLDAVVLGDGTADAFNGKTLRSAQGSHFHIPVVRRNLPSYVDELKAEGVKVYGTALQNGAPYQEIPQSESFALIVGNEGAGVDAALLEKTDLNLYVPLYGQAESLNVAVAAAILVYHLRG | soluble |
| MSGLTKIKPPKKARIGLYSAGLNTYWGQFEGLYDCLMGYNRFIEKRLSEWGEVFNFGMVDTEEKGREAGEFFNKNNVDIVFSHAATYYASATVLPVHQINNAPVIILNLQPTAEMAYDTTGTDRWLAQCVGCSIPEISNAFNRAGITFRAVNGLLGLTETPDFAKADEVTCERPEAVRAWKQIEEWCRAAAVKRNLQWARFGFLGGYYSGMLDMYSDFTMLQAQTGIDIEVLEMSDLDAYLKTVTEEEVQEKLKEIQDFFEISGDSPSDPIAKKPTEEQLTWSAKVAIAQEKMVRERNLDSVSYYYHGRDDYLEEVQSGFIVGFSLLNAQGIACAGEGDIKTALAMKIADICGTGGSFCEIVAADFNRDTMILGHDGPFHFAISKGKPILRGMGVYHGKRGSGVSVEAKVRPGAVTTLGVTQTGDGRLKFNISEGEAIDAPILLNGNTSTHIRFSQKPAEYMDRWFQEAPTHHLALSVGHNAELFKKIAELMDIPYAIY | soluble |
| MGSDKIHHHHHHQSLKLSDNVVRIGVLTDLSGVYSELSGQGSVKAAQMAAADFMAMNPSFRGKVQVIGVDHQNKADVASNKAAEMIDRQKVDVLMDLPTSSAALAASEVARQKKVPVMVVTGGTTALTNEKCNKYTFHYAYDNYMLANGTGTAVTKRGGNSWYIIYPNYAFGQDLNRQMTAAIQENGGKLVAPSDATPFPNTDFSSYLLKAQGLKPKVFGTMQAGADLVNVVKQYNEFGLRQQGIGLGIGLLFETDVAALGQDAFAGALATVPWYWNMDQRARDWAAKFEKAFGKKPTWAQAGVYSATMTYLQAVARAKSDDGDAVVKALEGHRFSDFFARNAYVRPQDHRVMLDVYTVQVKPKAQAKENGDYFNKVATIPAARAFMPLSESKCRM | not soluble |
| MKLESPLGSDLARLVRIWRALIDHRLKPLELTQTHWVTLHNIHQLPPDQSQIQLAKAIGIEQPSLVRTLDQLEEKGLISRQTCASDRRAKRIKLTEKAEPLISEMEAVINKTRAEILHGISAEELEQLITLIAKLEHNIIELQAKG | not soluble |
| MAHHHHHHMALVQSHYGSDAIHTRLNDDPPSSEEIERRRGAGCLPYSNRLVHRLVVLPVTPPSIYEGETTQSPVETQGTHNERRANERDRQRRARYASLLRSHYVPLVPFSTFTEPQERSFKLPTISKYPAARRQPQFAQSEEDYMMCGGFYPGPDQYDHRGGPRLGVMQQHTVQLERVHSRHVAPPPSRLINAPGNEDMLFPI | not soluble |
| SNAMNLNQLDIIVSNVPQVCADLEHILDKKADYANDGFAQFTIGSHCLMLSQNHLVPLENFQSGIIIHIEVEDVDQNYKRLNELGIKVLHGPTVTDWGTESLLVQGPAGLVLDFYRMK | soluble |
| MGPAQIWRLKFSNDKLTWEQECTFERSQYYDSIICACVYRFYHGAPPVVLFGTYSGRILQYELPPPTKFVRKSMKDVPKCGKPINLLINHGIYFIRQTGFNEIASITPFGLYILRENFHASKRLGKFGQFWLNRLQNRLLVKNPGSIDDFSAAEIRRLSIDSAQEQMRPRIGSTVSQLTFRYSDDDTLLLEKGGEKRRQTLGARDFQVSPRFYSRKIGKKIRFFLKFFREKLAGIENFRQIGKLAKMKISGKPANCQNFLPISNRGKLRKNFFFSENNDKF | not soluble |
| MSLTKDDQKELGKTLWAIADQLRGSMNADDFRDYMLSFLFLRYLSDNYEAAAKKELGSDYPDAKTIGNSDKTPLSVWYASNPGDVAAFEQQMRRKAHYVIKPKYLWGNIVNLAKKQNHDLLDTLQQGFKHIEEDSFESEFQGLFSEINLASDKLGRKYDDRNAKLCSIISEIARGMALSAKTDSLGDAYEYLIGQFAAGSGKKAGEFYTPQEISNILSAIVTLDSQEPKTGPRGKLDSVFDFACGSGSLLLNIRNRMTNSGGSIGKIYGQEYNVTTYNLARMNMLLHGVKDTEFEIYHGDTLKNDWDWLRETNPAKKPRFDAVVANPPFSYRWEPGEAMAQDARFKNHGVAPKSAADFAFLLHGLQYLKDDGVMAIILPHGVLFRGGKEADIRRKLLDDGHIDTVIGLPANLFYSTGIPVCILVLKKCKKPDDVLFINAAGHFAKGKRQNQLTDEHIQRIVNTYQNRNKQDRYSRCVSMKEIADKDYNLNISRYVSTAEADKEIVLEAVHADLTAIESRLEESKKRHNAFLVELGLKPLPEGHHHHHH | soluble |
| MTGHWSYCDDDECGPNRWPTGQHQSPINIDLGEVERKDTHDGIKFVNYDHPIQGDIVNNGHSVQMTPELRSEHPEIYGGGLDQVYRLVQYHFHWGENDNEGSEHTLGGLRYPAELHLVHQGVEDPGKLAVVGVFLQLGKEGKALSNEERVLGKLCNPETVTRVENVRLSEKLPANKRSFWRYEGSLTTPPCSEIVTWTIFTEPVTVTHDQLELFRQVQDIEKRPIKKNYRPTQNLNDRKIVHIVAN | not soluble |
| MGSSHHHHHHGGTGENLYFQGGSGMKGVTSFTVYGLVPAADFQRCAEAAAYVNDKYPESYAVIVKLELPRDFAERRAAWASAGHLPSQQQQPTDASFGESGGSATTASTAAAELAAVLVEQHGSDSEPQCLLTAETFLHNIATHTDYKPDATEDYYTARGKRAWRAFLASRGRQYCWMDVSVDGVAVGRVWFELYASVAPLTCKNFCELCRGTTVAMGDTVAHSSVFDPPPAQHIGYKGTTFFRTLKDAWVMGGDVTGAHSGNGGYSCYGRCFPDETYAVPHDAAGILGMCNDGPHTSSSAFYITLRPMSWMNGKYVAFGRVMDGMHVVDAIHAVEARHNQAPKASIVITDCDVLDTSV | soluble |
| SPNALDISRTYPTLHVLIQFNHRGLEVRLFRHGQFWAETRADVILRSKTKQVSFLSNGNYPSMDSRAPWNPWKNTYQAVLRAEPCRVTMDIYYKRVRPFRLPLVQKEWPVREENVFGLYRIFNAHYAGYFADLLIHDIETNPAPFMFRPRKQVFQTQGAAVSSMAQTLLPNDLASKAMGSAFTALLDANEDAQKAMKIIKTLSSLSDAWENVKETLNNPEFWKQLLSRCVQLIAGMTIAVMHPDPLTLLCLGTLTAAEITSQTSLCEEIAAKFKTIFITPPPRFPTISLFQQQ | not soluble |
| MPKGNKKPNEKKEELEKFAKELQGSDSDEDAVVIEQPTVEPKLPQNDSSSSNKIVLSQAEKDLLRTELDKTEEEISTLKQVLSARQKHAAELKRKLGLTPFSELSQDINRSLKTVTDTDAYQKTAEVAAATSDTVKEKWNDMRNSSLFKSFESKLGSALNNAKMAASTSIDHLAGAARGPSQTGTPVAEEAKPIS | soluble |
| GIDIELQMLGERLLEGKIGSIVAIEPSTGEILCMVSAPTFDPRLMVGRQRGKNHLELARDSWKPLLNRSIMGQFPPGSTFKTTQALTFLQEGIITPQTAYSCYHGFVYAGLRVGCHSHGSPLPLVPAIATSCNGYFCWGLFHMIGAKKKYGSVQTAMNTWRDYMVSMGFGYPLGVDLPGEKRGMIPNAAYYDKNYRGSWNGLTIISISIGQGEVTATPLQIANLGATIANRGYYITPHVVKEVEDEPLDTLYTTKRYTKVSREHYQTVVEGMRSAVLGGTCRNANIPGIEVCGKTGTAQNRGKDHSAFMGFAPMNDPKIAVVVYVENGGWGATYGVPIGALIMEKYLKGELSPESEAKAAEIQNRRIDYGIHER | not soluble |
| MGSDKIHHHHHHMEEKKALIIVDVQKAFDDKKWGERNNVKAEENISKILELWREKGWTVIYIQHTSDKPHSLFHPKNEGFAIKEIVKPMDEEVIITKTVNSSFIGTNLEEFLKLNEITTVVITGLTTPHCVSTTTRMSGNLGFDTYLISDATAAFGMRDQNDTYYDAATIHNISLATLHDEFATILTTDQLINDFIKTH | not soluble |
| LVRGGWLWRQSSILRRWKRNWFALWLDGTLGYYHDETAQDEEDRVVIHFNVRDIKVGQECQDVQPPEGRSRDGLLTVNLREGSRLHLCAETRDDAIAWKTALMEANSTPAPAGATVP | soluble |
| MSKLDLNALNELPKVDRILALAETNAELEKLDAEGRVAWALDNLPGEYVLSSSFGIQAAVSLHLVNQIRPDIPVILTDTGYLFPETYRFIDELTDKLKLNLKVYRATESAAWQEARYGKLWEQGVEGIEKYNDINKVEPMNRALKELNAQTWFAGLRREQSGSRANLPVLAIQRGVFKVLPIIDWDNRTIYQYLQKHGLKYHPLWDEGYLSVGDTHTTRKWEPGMAEEETRFFGLKRECGLHEGLEHHHHHH | soluble |
| MQLILLLVSLLMLIATFIEARDSDIDKKSLRTERLGFCPRYETWRKCGNGCEKSCTHPRQPPFSQCKLPCIPYSCRCNPGFYRDNQGTGRCVRLRRCKKW | not soluble |
| MSLTTGRISELLSPNYADLNDPRPIFDWMQVIRKRAVVYVGLDALSDTEVAAAVGNSMFSDLVSVAGHIYKHGVDDGLPGSLAGGKVRINLHADEFNELIGDEFIPMVNKAGGAGVQVTAYTQTMSDIEAKIGSRAKAGQIIGNFNNLFMLRVRETATAELLTNQLPKVQIYTSTPASGANDAINNKKAAFTSSSHDQVQMTSVPMLEPAHIVGLPKGQAFALLEGGNLWKIRMPLPAVDPDEVMPKSLQELAAGMRKGQAANSEGHHHHHH | not soluble |
